The target in this test is LgBiT-tagged human CXCR4 receptor (UniProt P61073). The experiment in a line: split reporter.

In article doi:10.1101/2020.04.21.032086 one finds koff, kon and pKD data, which are given here for one molecule.

On to VSGWRLFKKIS [purified HiBiT-HaloTag fusion protein], for which the koff is 0.00367 s⁻¹, the kon is 10000 M⁻¹ s⁻¹ and the pKD amounted to 6.43.
